Positions count from the first letter of the chain named. Like-named read-outs stand apart in the source and are kept apart here.
Experiments:
human CD3 [1] = target: T1, human CD3 (human, UniProt P07766 23-207; P04234 22-171; P09693 23-182); experiment: FACS on HEK293T-hCD3mix cells; further: test concentration or dose not given here
T1 construct: whole, on cells; also called hCD3; CD3 on Jurkat cells

cynomolgus CD3 [2] = target: T2, cynomolgus CD3 (cynomolgus (Macaca fascicularis), UniProt Q95LI5 22-198; Q95LI8 22-171; Q95LI7 23-181); experiment: FACS on 293F-cynoCD3mix cells; further: test concentration or dose not given here
T2 construct: whole, on cells; composition of the 'mix' not defined; also called cynoCD3
T2 sequence (Q95LI5 22-198, chain 1 of 3): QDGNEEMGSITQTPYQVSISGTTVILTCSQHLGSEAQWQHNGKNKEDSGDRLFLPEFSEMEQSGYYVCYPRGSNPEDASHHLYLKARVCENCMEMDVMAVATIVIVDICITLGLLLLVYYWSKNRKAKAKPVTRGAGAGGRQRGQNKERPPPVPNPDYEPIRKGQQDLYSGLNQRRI
T2 sequence (Q95LI8 22-171, chain 2 of 3): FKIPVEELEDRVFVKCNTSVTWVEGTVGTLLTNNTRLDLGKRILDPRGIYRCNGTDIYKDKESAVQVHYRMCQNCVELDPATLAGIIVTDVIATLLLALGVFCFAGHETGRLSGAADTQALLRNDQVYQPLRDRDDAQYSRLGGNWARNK
T2 sequence (Q95LI7 23-181, chain 3 of 3): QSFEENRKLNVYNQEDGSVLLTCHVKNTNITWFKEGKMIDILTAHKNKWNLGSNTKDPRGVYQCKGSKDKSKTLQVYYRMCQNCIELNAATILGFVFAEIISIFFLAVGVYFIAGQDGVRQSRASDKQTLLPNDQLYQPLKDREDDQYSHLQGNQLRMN

human CD3 [3] = target: T1, human CD3; experiment: FACS on Jurkat cells; on FACS MFI: test concentration or dose not given here
human CD3 [4] = target: T1, human CD3; experiment: FACS on Jurkat cells; remark: listed apart in the source; on FACS MFI: test concentration or dose not given here
human CD3 [5] = target: T1, human CD3; experiment: cell-based or functional assay
cynomolgus CD3 [6] = target: T2, cynomolgus CD3; experiment: FACS on 293T-cynoCD3mix cells
cynomolgus CD3 [7] = target: T2, cynomolgus CD3; experiment: FACS on 293T-cynoCD3mix cells; remark: listed apart in the source
human CD3 [8] = target: T1, human CD3; experiment: cell-based or functional assay; remark: listed apart in the source
human CD3 [9] = target: T1, human CD3; experiment: FACS on Jurkat cells; remark: listed apart in the source; on FACS MFI: test concentration or dose not given here
human CD3 [10] = target: T1, human CD3; experiment: FACS on Jurkat cells; remark: listed apart in the source; on FACS MFI: test concentration or dose not given here
human CD3 [11] = target: T1, human CD3; experiment: FACS on Jurkat cells; remark: listed apart in the source; on FACS MFI: test concentration or dose not given here
human CD3 [12] = target: T1, human CD3; experiment: cell-based or functional assay; remark: listed apart in the source

T1 sequence (P07766 23-207, chain 1 of 3): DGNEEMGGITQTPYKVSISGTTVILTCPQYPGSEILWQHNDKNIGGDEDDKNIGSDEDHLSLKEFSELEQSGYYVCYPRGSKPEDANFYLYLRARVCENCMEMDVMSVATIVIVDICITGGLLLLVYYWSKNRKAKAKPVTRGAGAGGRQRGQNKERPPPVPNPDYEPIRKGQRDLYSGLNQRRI
T1 sequence (P04234 22-171, chain 2 of 3): as the sequence (Q95LI8 22-171, chain 2 of 3) above, with V5I, K15N, V20I, T32S, N33D, N34I, A64T, N74S, L83V, R141H counted along it
T1 sequence (P09693 23-182, chain 3 of 3): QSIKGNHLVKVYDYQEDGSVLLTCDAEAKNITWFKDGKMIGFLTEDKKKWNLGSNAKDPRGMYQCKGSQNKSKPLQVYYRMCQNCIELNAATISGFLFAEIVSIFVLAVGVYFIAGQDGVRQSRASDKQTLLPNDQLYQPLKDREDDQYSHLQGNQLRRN

B1: 20-E11-E11-C2 (antibody, V domains shown)
VH: EVQLQQSGPEVVKPGASVKISCKASGYTFTDYYMNWVKQSHGKNLEWIGDINPIHGGISSNQKFSDKATLTVDKSSNTAYLELRSLTSEDSAIYYCARRIYYGYDWYFDVWGTGTTVTVSS
VL: DIVLSQSPAIMSASPGERVTMTCSASSSVTSRYFFWYQQKPGSSPKLWIYSTSNLASGVPVRFSGSGSGTSYSLTINNMAAEDAATYYCQQYSTSPSTFGAGTKLELK
notes: mouse monoclonal (hybridoma) antibody
For B1, the “FACS MFI” value (human CD3 [1]) was 55200 MFI.

B2: 4-F12-F1-A4 (antibody, V domains shown)
VH: EVKLVESGGGLVKPGGSLKLSCAASGFTFSSYTMSWIRQTPAKRLEWVATISSGGGNTFYADSVKGRFTISRDNARNTLNLQMSSLRSEDTAMYYCARSLYYYDGTYVRKDYYAMDYWGQGSSVTVSS
VL: DIQMTQSPASLSVSVGETVTISCRASENIFSNLAWYQQKQGKSPQLLVYAATNLAEGVPSRFSGSRSGTQFSLKINSLQSEDFGSYYCQQFWGTPWTFGGGTKLEVK
notes: as for B1
In the case of B2, the “FACS MFI” value (human CD3 [1]) is reported as 16800 MFI.

B3: 16-F2-C11-D9 (antibody, V domains shown)
VH: EVQLQQSGPELVKPGASVKMSCKASGYTFTDFNIHWVKQSLGKSLEWIGYINPNDGGSTYNQKFKGKATLTINKSSSSAYMELRSLTSEDSAVYYCAIPFLDSWGQGTSVTVSS
VL: TLMMTQSPSSMYASLGERVTITCKASQDINSYLRWYQQKPGKSPKTLIYGASSLVDGVPSRFSGRGSGQDYSLTISSLEYEDMGIYYCLQYDEVPLTFGAGTKLELK
notes: as for B1
For B3, the “FACS MFI” value (human CD3 [1]) was 80300 MFI.

B4: 8-B12-F9-B11 (antibody, V domains shown)
VH: EVQLVESGGGIVKPGGSRKLSCAASGFTFSDYGMHWVRQAPEKGLEWIAYISSASGKIYYADTVKGRFTISRDNAKNILFLQMTSLRSEDTAMYYCARVLRWSVNYVMDYWGQGTSVTVSS
VL: DIVMTQSPSSLAVSAGEKVTMNCESSQSVLYSSNQKNYLAWYQQKPGQSPKLLIYWASTRESGVPDRFTGTGSGTDFTLTISSVQAEDLAVYYCHQYLSSWTFGGGTKLEIK
notes: as for B1
For B4, the “FACS MFI” value (human CD3 [1]) was 67100 MFI.

B5: 7-D9-G10-H2 (antibody, V domains shown)
VH: EVQLQQSGPELVKPGASVKISCKASGYSFTGYFMNWVKQSHGKSLEWIGRFNPYNGDTFYNQNFKGKATLTVDKSSSTAHMELRSLTSEDSAVYYCARGDYWGQGTTLTVSS
VL: not shown
notes: as for B1
B5 was tested, and the “FACS MFI” value (human CD3 [1]) was 51000 MFI.

B6: 40-C12-C10-E9 (antibody, V domains shown)
VH: EVQLQLSGPELVKPGASVKMSCKASGYTFSSYVIHWVKQKPGQGLEWIGYINPYNDVIKYNEKFKGKATLTSDKSSSTAYMELSSLTSEDSAVYYCARDSYYSYDGFAYWGQGTLVTVSA
VL: QIVLTQSPAIMSASPGEKVTMTCSASSSVSYMHWYQQKSGTSPKRWIYDTSKLASGVPARFSGSGSGTSYSLTISSMEAEDAATYYCQQWSSNPPTFGGGTKVEIK
notes: as for B1
In the case of B6, the “FACS MFI” value (human CD3 [1]) is reported as 13100 MFI.

B7: 124E3D6 (antibody, V domains shown)
VH: QVQLQQPGTELVKPGASVKLSCKASGYTFTSYWMHWVKQRPGQGLEWIGNINPSNGDTNYNEKFKSKATLTVDKSSSTAYMQLSSLTSEDSAVYYCARDRSSQYYFDYWGQGTTLTVSS
VL: DIVMSQSPSSLAVSAGEKVTMSCKSSQSLLNSRTRKNYLAWYQQKPGQSPKLLIYWASTRESGVPDRFTGSGSGTDFTLTISSVQAEDLAVYYCKQSYNLRTFGGGTKLEIK
notes: as for B1
In the case of B7, the “FACS MFI” value (cynomolgus CD3 [2]) is reported as 400 MFI and the “FACS MFI” value (human CD3 [3]) is reported as 126 MFI.

B8: ch147E11E2 (antibody, V domains shown)
VH: B7 VH with A16T, D57A
VL: B7 VL with T34S, K95T, N99T
B8 was tested, and the EC50 (human CD3 [4]) was 0.649 nM, the “Top FACS signal” value (human CD3 [4]) was 2780 and the “EC50 (Jurkat-NFAT-luciferase activation)” value (human CD3 [5]) was 33 nM. The “Top signal (Jurkat-NFAT-luciferase activation)” value (human CD3 [5]) was 421, the EC50 (cynomolgus CD3 [6]) was 2.19 nM and the Top signal (cynomolgus CD3 [6]) was 53900. The EC50 (cynomolgus CD3 [7]) was 1.23 nM, the Top signal (cynomolgus CD3 [7]) was 17800 and the “EC50_Fold change (Jurkat-NFAT-luciferase activation, normalized to ch147E11E2)” value (human CD3 [8]) was 1 fold. The “Top FACS signal_Fold change (Jurkat-NFAT-luciferase activation, normalized to ch147E11E2)” value (human CD3 [8]) was 1 fold, the EC50 (human CD3 [9]) was 0.419 nM and the Top signal (human CD3 [9]) was 2780.

B9: 127E2D3 (antibody, V domains shown)
VH: B7 VH with Q43E, N52Y, S54G, N55S, G56S, D57S, T58I
VL: B7 VL with K95T
notes: as for B1
For B9, the “FACS MFI” value (cynomolgus CD3 [2]) was 1920 MFI and the “FACS MFI” value (human CD3 [3]) was 930 MFI.

B10: 147C6F3 (antibody, V domains shown)
VH: B7 VH with T30D, I51L, D57E, T58I, S66H, A97S
VL: B7 VL with M21L, P46S, I54M, S82T, S83N, N99I
notes: as for B1
In the case of B10, the “FACS MFI” value (cynomolgus CD3 [2]) is reported as 2230 MFI and the “FACS MFI” value (human CD3 [3]) is reported as 1860 MFI.

B11: ch147C6F3 (antibody, V domains shown)
VH: B7 VH with T30D, I51L, D57E, T58I, S66H, A97S
VL: B7 VL with M21L, P46S, I54M, S82T, S83N, N99I
With B11 the “EC50 (Jurkat-NFAT-luciferase activation)” value (human CD3 [5]) was 57.4 nM, the “Top signal (Jurkat-NFAT-luciferase activation)” value (human CD3 [5]) was 428 and the EC50 (cynomolgus CD3 [6]) was 4.15 nM. The Top signal (cynomolgus CD3 [6]) was 55200, the EC50 (human CD3 [9]) was 1.77 nM and the Top signal (human CD3 [9]) was 2280.

B12: 126A11A4 (antibody, V domains shown)
VH: B7 VH with G42E, S75A, S77N, A97G
VL: B7 VL with Y93F, Y98F, N99I
notes: as for B1
For B12, the “FACS MFI” value (cynomolgus CD3 [2]) was 2220 MFI and the “FACS MFI” value (human CD3 [3]) was 1620 MFI.

B13: 140D2B10 (antibody, V domains shown)
VH: B7 VH with D57E, T58S, S91Y
VL: B7 VL with N99T
notes: as for B1
With B13 the “FACS MFI” value (cynomolgus CD3 [2]) was 2040 MFI and the “FACS MFI” value (human CD3 [3]) was 872 MFI.

B14: 133B4C7 (antibody, V domains shown)
VH: B7 VH with Y60F
VL: B7 VL with K24N, N99T
notes: as for B1
For B14, the “FACS MFI” value (cynomolgus CD3 [2]) was 1780 MFI and the “FACS MFI” value (human CD3 [3]) was 681 MFI.

B15: 2-F12-A6-G2 (antibody, V domains shown)
VH: EVQLVESRPGLVAPSQSLSITCTVSGFSLTSYGVSWVRQPPGKGLEWLGVIWGDGNTNYNSDLKTSLSISKDNSKSQVFLKLDSLQTDDTATYYCAKVSYWYFDVWGTGTTVTVSS
VL: DIQLTQPPASLSASVGETVTITCRASENIYSYLAWYQQKQGKSPQLLVYNAKTLPEGVPSRFSGSGSGTQFSLKINSLQPEDFGTYYCQHHYGTPPTFGTGTKLELK
notes: as for B1
B15 was tested, and the “FACS MFI” value (human CD3 [1]) was 53800 MFI.

B16: BMK-TCB (antibody, V domains shown)
VH: not shown
VL: QAVVTQEPSLTVSPGGTVTLTCGSSTGAVTTSNYANWVQEKPGQAFRGLIGGTNKRAPGTPARFSGSLLGGKAALTLSGAQPEDEAEYYCALWYSNLWVFGGGTKLTVL
notes: benchmark anti-CD3 antibody; also called anti-CD3 antibody developed by Roche
With B16 the EC50 (human CD3 [4]) was 1.35 nM, the “Top FACS signal” value (human CD3 [4]) was 2370 and the “EC50 (Jurkat-NFAT-luciferase activation)” value (human CD3 [5]) was 59.4 nM. For the same binder, the “Top signal (Jurkat-NFAT-luciferase activation)” value (human CD3 [5]) was 753, the EC50 (human CD3 [10]) was 1.6 nM and the “Top FACS signal” value (human CD3 [10]) was 1740. For the same binder, the EC50 (human CD3 [11]) was 1.3 nM, the “Top FACS signal” value (human CD3 [11]) was 2570 and the “EC50_Fold change (Jurkat-NFAT-luciferase activation, normalized to ch40-C12-C10-E9; mean)” value (human CD3 [12]) was 8.17 fold. The “Top FACS signal_Fold change (Jurkat-NFAT-luciferase activation, normalized to ch40-C12-C10-E9; mean)” value (human CD3 [12]) was 0.48 fold, the “EC50_Fold change (Jurkat-NFAT-luciferase activation, normalized to ch147E11E2; mean)” value (human CD3 [8]) was 2.24 fold and the “Top FACS signal_Fold change (Jurkat-NFAT-luciferase activation, normalized to ch147E11E2; mean)” value (human CD3 [8]) was 0.5 fold. For the same binder, the EC50 (human CD3 [9]) was 1.91 nM and the Top signal (human CD3 [9]) was 3140.

B17: BMK-B219 (antibody, V domains shown)
VH: EVQLVESGGGLVQPGGSLRLSCAASGFTFNTYAMNWVRQAPGKGLEWVARIRSKYNNYATYYAASVKGRFTISRDDSKNSLYLQMNSLKTEDTAVYYCARHGNFGNSYVSWFAYWGQGTLVTVSS
VL: B16 VL with A2T, G23R, E40Q, F46P, A80V
notes: benchmark anti-CD3 antibody; also called anti-CD3 antibody developed by JNJ (Johnson & Johnson)
B17 was tested, and the “EC50 (Jurkat-NFAT-luciferase activation)” value (human CD3 [5]) was 68.4 nM, the “Top signal (Jurkat-NFAT-luciferase activation)” value (human CD3 [5]) was 811 and the EC50 (cynomolgus CD3 [6]) was 4.34 nM. The Top signal (cynomolgus CD3 [6]) was 60000, the EC50 (human CD3 [9]) was 1.47 nM and the Top signal (human CD3 [9]) was 3000.

B18: 7-D8-G12-E4 (antibody, V domains shown)
VH: EVKLVESGGGLVKPGGSLKLSCAASGFTFSSYPMSWVRQTPAKRLEWVATISSGGGNTYYPDSVKGRFTISRDNARNTLYLQMSSLRSEDTAMYYCARGLYWYFDVWGAGTTVTVSS
VL: DIVLTQSPLSLPVSLGDQASISCRSSQSIAHSNGDTYLEWYLQNPGQSPKLLIYKVSNRISGVPDRFSGSGSGTDFTLKISRVEAEDLGVYYCFQGSHVPYTFGGGTKLEIK
notes: as for B1
For B18, the “FACS MFI” value (human CD3 [1]) was 65200 MFI.

B19: 3-C6-C11-F12 (antibody, V domains shown)
VH: EVHLVESGGGLVQPGGSRKLSCAGSGFTFSTYGMHWVRQAPEKGLEWVAYISNGGSTIYYADSVKGRFTISRDNPNDTLFLHMTSLGSEDTAMYYCARPTWGGFAYWGQGTLVTVSA
VL: B18 VL
notes: as for B1
In the case of B19, the “FACS MFI” value (human CD3 [1]) is reported as 21800 MFI.
